The values below come from the Immune Epitope Database (IEDB).

For one experiment, the target named is HLA-B*39:01. Put plainly: IEDB peptide-MHC binding, purified MHC/direct/fluorescence; filed as Kd, often an IC50 or EC50 that approximates it; ≥ and ≤ were set here for values at or beyond the usual limits of such assays.
A further experiment addresses HLA-B*18:01. The experiment is described as above.
A further experiment deals with HLA-A*01:01. Described as above.
Another experiment concerns the target HLA-A*69:01. The description is as above.
The next experiment has as its target HLA-B*08:01. The experiment is described as above.
The target in the next experiment is HLA-B*07:02. The experiment is described as above.
The next experiment addresses HLA-A*03:01. The experiment is described as above.
A further experiment addresses HLA-B*57:01. Described as above.
For a further experiment, the target named is HLA-B*15:09. The experiment is described as above.
The target in experiment [1] is HLA-A*02:01. The experiment is described as above.
In another experiment the target is HLA-B*58:01. The description is as above.
In another experiment the target is HLA-B*40:01. The description is as above.
In another experiment the target is HLA-B*27:05. The description is as above.
A further experiment has as its target HLA-A*31:01. The experiment is described as above. Conditions: source organism: Influenza A virus (A/swine/Korea/S190/2004(H9N2)).
A further experiment concerns the target HLA-B*48:01. The description is as above. Conditions: source organism: Influenza A virus (A/swine/Korea/S190/2004(H9N2)).
A further experiment addresses HLA-B*15:17. Described as above. Conditions: source organism: Influenza A virus (A/swine/Korea/S190/2004(H9N2)).
In the next experiment the target is HLA-B*15:01. Described as above.
Another experiment concerns the target HLA-B*38:01. The experiment is described as above. As to conditions: source organism: Influenza A virus H3N2.
A further experiment deals with HLA-B*46:01. The experiment is described as above.
The target of the next experiment is HLA-A*11:01. The description is as above.
Experiment [2] deals with HLA-A*02:03. Kind of experiment: IEDB peptide-MHC binding, purified MHC/competitive/fluorescence; filed as Kd, often an IC50 or EC50 that approximates it; ≥ and ≤ were set here for values at or beyond the usual limits of such assays. As to conditions: source organism: Influenza A virus (A/swine/Italy/1521/98(H1N2)).
A further experiment concerns the target HLA-B*44:02. Put plainly: IEDB peptide-MHC binding, purified MHC/direct/fluorescence; filed as Kd, often an IC50 or EC50 that approximates it; ≥ and ≤ were set here for values at or beyond the usual limits of such assays. Conditions: source organism: Influenza A virus (A/G.H/HK/793.1/02 (H5N1)).
The next experiment concerns the target HLA-A*24:02. The experiment is described as above. Conditions: source organism: Influenza A virus (A/G.H/HK/793.1/02 (H5N1)).
The next experiment addresses HLA-A*80:01. Described as above. As to conditions: source organism: Yellow fever virus.
A further experiment has as its target HLA-A*26:01. Described as above.
In a further experiment the target is HLA-A*26:02. Kind of experiment: IEDB peptide-MHC binding, purified MHC/competitive/fluorescence; filed as Kd, often an IC50 or EC50 that approximates it; ≥ and ≤ were set here for values at or beyond the usual limits of such assays. As to conditions: source organism: Hantaan virus 76-118.
The next experiment concerns the target HLA-B*27:03. Put plainly: IEDB peptide-MHC binding, purified MHC/direct/fluorescence; filed as Kd, often an IC50 or EC50 that approximates it; ≥ and ≤ were set here for values at or beyond the usual limits of such assays. Conditions: source organism: Crocodilepox virus.
Another experiment concerns the target HLA-A*02:16. The experiment is described as above. As to conditions: source organism: Crocodilepox virus.
A further experiment has as its target HLA-A*02:12. The experiment is described as above. Conditions: source organism: Crocodilepox virus.
A further experiment deals with HLA-A*02:19. Described as above. Conditions: source organism: Crocodilepox virus.
The target of the next experiment is HLA-A*24:03. Described as above. As to conditions: source organism: Crocodilepox virus.
The target in another experiment is HLA-A*02:11. The description is as above. Conditions: source organism: Crocodilepox virus.
Experiment [3] has as its target HLA-A*02:03. The experiment is described as above. As to conditions: source organism: Crocodilepox virus.
Another experiment deals with HLA-A*68:02. The description is as above. As to conditions: source organism: Crocodilepox virus.
The next experiment has as its target HLA-B*51:01. The experiment is described as above. As to conditions: source organism: Crocodilepox virus.
Another experiment addresses HLA-C*08:02. Described as above.
The target of another experiment is HLA-B*35:01. Put plainly: IEDB peptide-MHC binding, purified MHC/competitive/fluorescence; filed as Kd, often an IC50 or EC50 that approximates it; ≥ and ≤ were set here for values at or beyond the usual limits of such assays. As to conditions: source organism: Yersinia pestis Nepal516.
For experiment [4], the target named is HLA-A*02:01. The experiment is described as above. As to conditions: source organism: Yersinia pestis Nepal516.
Setting [5] is: source organism: Influenza A virus H3N2.
The mark [6] stands for this setting: source organism: Influenza A virus (A/swine/Korea/S190/2004(H9N2)).
The mark [7] stands for this setting: source organism: Influenza A virus (A/G.H/HK/793.1/02 (H5N1)).
[8] abbreviates: source organism: Yellow fever virus.
Setting [9] is: source organism: Crocodilepox virus.

A value given as a limit tells only on which side of the number the result lay.

Turning to WIPKRNRSI, the Kd with HLA-B*39:01 (setting [5]) is at least 20 µM; with HLA-B*18:01 (setting [6]), at least 20 µM; in the experiment with HLA-A*01:01 (setting [6]), at least 20 µM; in the experiment with HLA-A*69:01 (setting [6]), at least 20 µM; with HLA-B*08:01 (setting [5]), 0.018 µM; in the experiment with HLA-B*07:02 (setting [6]), 0.644 µM. In addition, the dissociation constant Kd in the experiment with HLA-A*03:01 (setting [6]), with HLA-B*57:01 (setting [6]), in the experiment with HLA-B*15:09 (setting [5]), with HLA-A*02:01 [1] (setting [6]), in the experiment with HLA-B*58:01 (setting [6]) and in the experiment with HLA-B*40:01 (setting [6]) was at least 20 µM in each case. The equilibrium dissociation constant (Kd) with HLA-B*27:05 (setting [6]), in the experiment with HLA-A*31:01, with HLA-B*48:01, with HLA-B*15:17, with HLA-B*15:01 (setting [6]) and with HLA-B*38:01 was at least 20 µM each time. The dissociation constant (Kd) with HLA-B*46:01 (setting [6]), with HLA-A*11:01 (setting [6]) and with HLA-A*02:03 [2] was at least 20 µM each time.
For RRKTNLYGF, the Kd with HLA-B*18:01 (setting [7]), with HLA-A*01:01 (setting [7]), in the experiment with HLA-B*08:01 (setting [7]), with HLA-B*07:02 (setting [7]), in the experiment with HLA-A*03:01 (setting [7]) and with HLA-B*15:09 (source organism: Influenza A virus (A/Taiwan/2/2006(H1N1))) was at least 20 µM throughout. Besides, the Kd with HLA-A*02:01 [1] (setting [7]) is at least 20 µM; in the experiment with HLA-B*58:01 (setting [7]), at least 20 µM; with HLA-B*44:02 it was at least 20 µM; with HLA-A*24:02 it was at least 20 µM; in the experiment with HLA-B*40:01 (setting [7]), at least 20 µM; in the experiment with HLA-B*27:05 (source organism: Influenza A virus (A/Puerto Rico/8/34/Mount Sinai(H1N1))) it was 0.021 µM. For the same sequence, the equilibrium dissociation constant (Kd) with HLA-B*15:01 (setting [7]), in the experiment with HLA-B*46:01 (setting [7]) and with HLA-A*11:01 (setting [7]) was at least 20 µM in each case.
GVEGIGLQY gave a Kd with HLA-A*80:01 of 0.338 µM.
In the case of GTGDSRLTY, the Kd is at least 20 µM in the experiment with HLA-A*69:01 (setting [8]), 0.2 µM in the experiment with HLA-A*80:01 and at least 20 µM with HLA-A*02:01 [1] (setting [8]).
ETYKELKAH: the values for the Kd with HLA-A*26:01 (source organism: Orthohantavirus hantanense) and with HLA-A*26:02 were 0.25 µM and 0.0118 µM, respectively.
For the sequence VVARLGVPY, the dissociation constant (Kd) with HLA-B*39:01 (setting [9]), with HLA-B*27:03, with HLA-A*02:16, in the experiment with HLA-A*02:12, with HLA-A*02:19 and in the experiment with HLA-A*24:03 was at least 20 µM each time. Further, the Kd in the experiment with HLA-A*03:01 (setting [9]), in the experiment with HLA-B*57:01 (setting [9]), with HLA-A*02:01 [1] (setting [9]), with HLA-A*26:01 (setting [9]), in the experiment with HLA-A*02:11 and in the experiment with HLA-A*02:03 [3] was at least 20 µM each time. Also, the Kd in the experiment with HLA-A*68:02 and in the experiment with HLA-B*51:01 was at least 20 µM each time.
Take STAPTGSWF: in the experiment with HLA-C*08:02 (source organism: human gammaherpesvirus 4), the dissociation constant Kd is at least 20 µM.
As to FVADYLARF, the dissociation constant Kd was 2.77 µM with HLA-C*08:02 (source organism: Yersinia pestis Nepal516), 0.0033 µM with HLA-B*35:01 and 0.082 µM with HLA-A*02:01 [4].
